T1: GPC3 peptide, amino acid position 361-390 (SEQ ID NO: 19) (human)
T1 construct: synthetic 30-residue peptide of GPC3
T1 peptide: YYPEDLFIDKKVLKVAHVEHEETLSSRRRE

T2: GPC3 peptide, amino acid position 461-490 (SEQ ID NO: 24) (human)
T2 construct: synthetic 30-residue peptide of GPC3
T2 peptide: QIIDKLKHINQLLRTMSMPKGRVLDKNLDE

T3: GPC3 peptide, amino acid position 201-230 (SEQ ID NO: 11) (human)
T3 construct: synthetic 30-residue peptide of GPC3
T3 peptide: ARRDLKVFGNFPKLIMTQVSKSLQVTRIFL

T4: GPC3 peptide, amino acid position 521-550 (SEQ ID NO: 27) (human)
T4 construct: synthetic 30-residue peptide of GPC3
T4 peptide: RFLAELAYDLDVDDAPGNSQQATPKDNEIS

T5: GPC3 peptide, amino acid position 261-290 (SEQ ID NO: 14) (human)
T5 construct: synthetic 30-residue peptide of GPC3
T5 peptide: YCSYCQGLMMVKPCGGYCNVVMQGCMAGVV

T6: GPC3 peptide, amino acid position 321-350 (SEQ ID NO: 17) (human)
T6 construct: synthetic 30-residue peptide of GPC3
T6 peptide: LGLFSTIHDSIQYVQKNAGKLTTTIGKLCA


Legend:
[1] = target: T1, GPC3 peptide, amino acid position …; assay: ELISA on immobilised peptide
Method: (§1) In order to identify more detailed epitopes for the antibodies, the amino acid sequence of GPC3 was divided into peptides of 30 residues containing 10-residue overlaps, and the corresponding peptides were synthesized (SEQ ID NOs: 1 to 29 in Table 2). Each peptide thus synthesized was dissolved at a concentration of 1 mg/mL in dimethyl sulfoxide and then diluted to 1 μg/mL with PBS. The diluted peptide solution was added at 70 μL/well to a 96-well plate and immobilized thereon at room temperature for 1 hour. After removal of unimmobilized peptides, 20% Blocking-one (Nacalai Tesque, Inc.) was added thereto as a blocking buffer solution at 200 μL/well, and the plate was blocked overnight. After removal of the blocking buffer solution, each well was washed with TBS-T three times, and each antibody diluted to 2 μg/mL with a blocking buffer was then added thereto at 70 μL/well. One hour later, the antibody was removed, and each well was washed three times by the addition of TBS-T at 200 μL/well. An HRP-bound anti-mouse antibody was added at 70 μL/well to each well and reacted therewith for 1 hour. After removal of the antibody, each well was washed with 200 μL/well of TBS-T three times, and a chromogenic reagent ABTS Peroxidase Substrate System (1 component, KPL, Kirkegaard & Perry Laboratories, Inc.) was then added thereto at 70 μL/well and reacted at room temperature for […] to develop color. The reaction was terminated by the addition of 1% SDS at 70 μL/well, and the absorbance at 405 nm was measured using a plate reader.

[2] = target: T2, GPC3 peptide, amino acid position …; assay: ELISA on immobilised peptide
Method: as §1

[3] = target: T3, GPC3 peptide, amino acid position …; assay: ELISA on immobilised peptide
Method: as §1

[4] = target: T4, GPC3 peptide, amino acid position …; assay: ELISA on immobilised peptide
Method: as §1

[5] = target: T5, GPC3 peptide, amino acid position …; assay: ELISA on immobilised peptide
Method: as §1

[6] = target: T6, GPC3 peptide, amino acid position …; assay: ELISA on immobilised peptide
Method: as §1

[7] = target: T7, AW2, C-terminally His-tagged recombinant product of positions 1 to 196 of GPC3 (human, UniProt P51654 25-196); assay: Western blot of CHO cell pellets, reducing
T7 construct: Expressed in CHO cells; cell pellets used in reducing Western blot; Construct is stated from position 1; also called AW2 (1-196); not shown: C-terminal His tag

[8] = target: T8, AW3, C-terminally His-tagged recombinant product of positions 1 to 218 of GPC3 (human, UniProt P51654 25-218); assay: Western blot of CHO cell pellets, reducing
T8 construct: Expressed in CHO cells; cell pellets used in reducing Western blot; Construct is stated from position 1; not shown: C-terminal His tag

[9] = target: T9, AW5, C-terminally His-tagged recombinant product of positions 1 to 357 of GPC3 (human, UniProt P51654 25-357); assay: Western blot of CHO cell pellets, reducing
T9 construct: Expressed in CHO cells; cell pellets used in reducing Western blot; Construct is stated from position 1; also called AW5 (1-357); not shown: C-terminal His tag
T9 sequence (P51654 25-357): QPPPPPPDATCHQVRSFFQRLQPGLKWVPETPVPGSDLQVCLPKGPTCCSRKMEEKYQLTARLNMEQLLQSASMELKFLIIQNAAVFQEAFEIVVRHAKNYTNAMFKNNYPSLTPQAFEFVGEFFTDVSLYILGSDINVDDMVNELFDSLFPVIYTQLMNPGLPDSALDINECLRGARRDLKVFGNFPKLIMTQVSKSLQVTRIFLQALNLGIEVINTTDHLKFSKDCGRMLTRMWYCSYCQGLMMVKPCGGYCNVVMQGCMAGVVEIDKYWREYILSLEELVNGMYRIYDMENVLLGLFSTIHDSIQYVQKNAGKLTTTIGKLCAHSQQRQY

T8 sequence (P51654 25-218): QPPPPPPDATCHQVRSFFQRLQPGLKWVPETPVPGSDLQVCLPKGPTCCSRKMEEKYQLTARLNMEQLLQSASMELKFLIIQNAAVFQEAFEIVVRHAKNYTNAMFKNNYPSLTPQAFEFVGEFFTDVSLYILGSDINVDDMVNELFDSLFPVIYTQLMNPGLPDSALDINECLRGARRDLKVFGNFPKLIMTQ
T7 sequence (P51654 25-196): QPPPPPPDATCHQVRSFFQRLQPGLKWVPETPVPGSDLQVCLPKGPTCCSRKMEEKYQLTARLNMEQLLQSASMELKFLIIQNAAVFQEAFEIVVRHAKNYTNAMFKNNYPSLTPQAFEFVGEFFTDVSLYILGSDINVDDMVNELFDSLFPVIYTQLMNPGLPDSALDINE

Row | binding result [1] | binding result [2] | binding result [3] | binding result [4] | binding result [5] | binding result [6] | binding result [7] | binding result [8] | binding result [9] | Binder
1 | no binding (tested: 2 µg/mL) | no binding (tested: 2 µg/mL) | no binding (tested: 2 µg/mL) | no binding (tested: 2 µg/mL) | no binding (tested: 2 µg/mL) | no binding (tested: 2 µg/mL) | no binding | no binding |  | GT607 antibody (antibody, IgG1, V domains shown) VH: EVQLVESGGDVVRPGGSLKLSCAASGFTFSSYGMSWVRQLPDKRLEWVASVGNGGSYRYYPENLKGRFTISRDNTKNTLYLQISGLKSEDTAIYYCARRGAFPYFDVWGAGTTVTVSS VL: QIVLTQSPAIMSASPGEKVTLACSASSSVTYMHWYQQKSGTSPKRWIYETSKLASGVPPRFSGSGSGTSYSLTISTMEAEDAATYYCQQWSSNPLTFGAGTKLELKR
2 | no binding (tested: 2 µg/mL) | no binding (tested: 2 µg/mL) | no binding (tested: 2 µg/mL) | no binding (tested: 2 µg/mL) | no binding (tested: 2 µg/mL) | no binding (tested: 2 µg/mL) | no binding | no binding |  | GT114 antibody (antibody, IgG1, V domains shown) VH: DVQLQESGPGLVKPSQSLSLTCTVTGYSITSDSAWNWIRQFPGNKLEWMAYIMYSGITSYNPSLKSRISITRDTAKNQFFLQLNSVTTEDSATYYCSRGYWYFDVWGAGTTVTVSS VL: QIVLTQSPAIMSASLGEEITLTCSASSSVSYMHWYQQKSGTSPKLLIYSTSILASGVPSRFSGSGSGTFYSLTISSVEAEDAADYYCLQWITYRTFGGGTKLEIKR
3 | no binding (tested: 2 µg/mL) | no binding (tested: 2 µg/mL) | no binding (tested: 2 µg/mL) | no binding (tested: 2 µg/mL) | no binding (tested: 2 µg/mL) | no binding (tested: 2 µg/mL) | no binding | no binding | no binding | GT165 antibody (antibody, IgG1, V domains shown) VH: QVQLQQSGAELVGPGASVKISCKAFGYTFTNHHINWVKQRPGQGLDWIGYINPYNDYTNYNQKFKGKATLTVDKSSSTAYMELSSLTSEDSAVYYCARSDPAWFAYWGQGTLVTVSA VL: DIQMTQSPSSLSASLGGKVTITCKASQDINKNIAWYQHKPGKGPRLLIWYTYTLQPGIPSRFSGSGSGRDYSFSISNLEPEDIATYYCLQYDNLPFTFGTGTKLEIKR

Source: patent publication US20170010270A1 (Chugai, published 2017)
